Measurements from publication doi:10.1101/803361 (bioRxiv, 2019).
Where a chain is given by its changes, count along the chain named. In names and notes the source's numbering stands.

B1: Human heat shock transcription factor 1 (Hsf1), wild type (natural protein)
chain: MDLPVGPGAAGPSNVPAFLTKLWTLVSDPDTDALICWSPSGNSFHVFDQGQFAKEVLPKYFKHNNMASFVRQLNMYGFRKVVHIEQGGLVKPERDDTEFQHPCFLRGQEQLLENIKRKVTSVSTLKSEDIKIRQDSVTKLLTDVQLMKGKQECMDSKLLAMKHENEALWREVASLRQKHAQQQKVVNKLIQFLISLVQSNRILGVKRKIPLMLNDSGSAHSMPKYSRQFSLEHVHGSGPYSAPSPAYSSSSLYAPDAVASSGPIISDITELAPASPMASPGGSIDERPLSSSPLVRVKEEPPSPPQSPRVEEASPGRPSSVDTLLSPTALIDSILRESEPAPASVTALTDARGHTDTEGRPPSPPPTSTPEKCLSVACLDKNELSDHLDAMDSNLDNLQTMLSSHGFSVDTSALLDLFSPSVTVPDMSLPDLDSSLASIQELLSPQEPPRPPEAENSSPDSGKQLVHYTAQPLFLLDPGSVDTGSNDLPVLFELGEGSYFSEGDGFAEDPTISLLTGSEPPKAKDPTVS
B2: Hsf1-I190S,I194S (natural protein)
chain: B1 chain with I190S, I194S

Key:
[1] = biological target: Human Hsc70 (HSPA8), wild type (human, UniProt P11142 1-646); assay: HDX-MS
Chain of Human Hsc70 (HSPA8), wild type (P11142 whole entry): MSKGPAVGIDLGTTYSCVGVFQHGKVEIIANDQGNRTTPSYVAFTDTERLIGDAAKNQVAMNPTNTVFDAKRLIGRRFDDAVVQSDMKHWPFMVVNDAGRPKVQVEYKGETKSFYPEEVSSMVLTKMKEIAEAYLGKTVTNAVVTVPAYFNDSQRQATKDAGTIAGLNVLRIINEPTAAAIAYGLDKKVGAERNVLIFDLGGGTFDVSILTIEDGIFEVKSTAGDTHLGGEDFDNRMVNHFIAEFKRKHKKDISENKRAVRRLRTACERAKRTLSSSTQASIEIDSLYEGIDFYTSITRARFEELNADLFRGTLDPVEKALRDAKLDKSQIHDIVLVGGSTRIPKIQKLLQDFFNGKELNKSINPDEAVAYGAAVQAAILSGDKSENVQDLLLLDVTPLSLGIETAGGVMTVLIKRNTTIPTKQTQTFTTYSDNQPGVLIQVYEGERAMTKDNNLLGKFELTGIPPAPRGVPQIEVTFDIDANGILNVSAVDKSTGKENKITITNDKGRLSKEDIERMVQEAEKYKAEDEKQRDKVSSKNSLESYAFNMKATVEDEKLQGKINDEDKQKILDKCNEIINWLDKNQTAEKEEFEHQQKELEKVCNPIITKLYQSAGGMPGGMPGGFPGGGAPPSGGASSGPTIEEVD

SEC + native gel or EMSA = biological target: the molecule itself; assay: SEC + native gel or EMSA

| Binder | binding result [1] | stoichiometry N (SEC + native gel or EMSA) |
| --- | --- | --- |
| B1 | binds |  |
| B2 |  | 3 |
